Experimental data as given in patent publication US20250002586A1 (CDR LIFE, published 2025).
Read-outs that look alike come from different tables or passages of the source.

Experiments:
[1] = target: T1, MAGE-A4 peptide … presented by HLA-A*02:01 on cells (human); experiment: cell-based or functional assay
[2] = target: T2, HLA-A*02:01 in complex with the MAGE-A4 peptide … (human); experiment: SPR (Biacore T200), HLA-A*02:01/MAGE-A4 peptide complex on streptavidin chip, 1:1 Langmuir fit
T2 construct: Recombinant complex as immobilised (500 RU) for SPR; also called HLA-A2/MAGE-A4 complex; pMHC-MAGE-A4 antigen
Protocol: Affinity characterization of HLA-A2/MAGE-A4×CD3 bispecific antibodies was performed by surface plasmon resonance (SPR). All experiments were conducted using a Biacore™ T200 Device (Cytiva). To determine the kinetic parameters of the binding of the bispecific antibodies to the HLA-A2/MAGE-A4 complex, a streptavidin chip (SAHC30M, XanTec) was coated according to the manufacturer's instructions with 500 RU HLA-A*02:01 in complex with the MAGE-A4 peptide. The resulting affinities presented herein correspond to the measurements performed with the respective monovalent antigen binding proteins. […] Uncoated channels were used for referencing. Data fitting was performed using a 1:1 Langmuir model.

[3] = target: T1, MAGE-A4 peptide … presented by …; experiment: cell-based or functional assay; remark: listed apart in the source
[4] = target: CD3 heterodimer (Acro Biosystems) (UniProt P07766 23-126); experiment: SPR (Biacore T200), CD3 heterodimer on HC30M chip, 1:1 Langmuir fit
CD3 heterodimer (Acro Biosystems), sequence (P07766 23-126, one chain of several): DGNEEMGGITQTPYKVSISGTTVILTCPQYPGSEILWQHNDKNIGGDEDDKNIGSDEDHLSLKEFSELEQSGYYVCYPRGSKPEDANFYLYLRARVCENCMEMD

Binder | U20S cell killing, IC50 [1] [nM] | Kd [2] [nM] | U20S cell killing, IC50 [3] [nM] | Kd [4] [nM]
CDR-1 (bispecific antibody, no Fc; also called Format #1; monovalent Fab-VHH HLA-A2/MAGE-A4 x CD3 bispecific) heavy: EVQLVESGGGSVQPGGSLRLSCAASGFTFSTYAMNWVRQAPGKGLEWVGRIRSKANNYATYYADSVKGRFTISRDDSKNTLYLQMNSLRAEDTATYYCVRHGNFGDSYVSWFAYWGQGTTVTVSSASTKGPSVFPLAPSSKSTSGGTAALGCLVKDYFPEPVTVSWNSGALTSGVHTFPAVLQSSGLYSLSSVVTVPSSSLGTQTYICNVNHKPSNTKVDKRVEPKSC light: EVQLVESGGGLAQAGGSLRVSCVASGRPFTKYAWGWFRQAPGKAREFVATITWDGGKTDYADSVKGRFTISKDSAENSIYLQMNSLKPEDTAVYYCAADRNYCVGHRCYVRPDDYDYWGQGTQVTVSSGGGGSAVVTQEPSLTVSPGGTVTLTCGSSTGAVTTSNYANWVQQKPGKSPRGLIGGTNKRAPGVPARFSGSLLGGKAALTISGAQPEDEADYYCALWYSNHWVFGGGTKLTVLGTVAAPSVFIFPPSDEQLKSGTASVVCLLNNFYPREAKVQWKVDNALQSGNSQESVTEQDSKDSTYSLSSTLTLSKADYEKHKVYACEVTHQGLSSPVTKSFNRGEC | 0.1 | 1.5 | – | –
CDR-5 (bispecific antibody) heavy: EVQLVESGGGSVQPGGSLRLSCAASGFTFSTYAMNWVRQAPGKGLEWVGRIRSKANNYATYYADSVKGRFTISRDDSKNTLYLQMNSLRAEDTATYYCVRHGNFGDSYVSWFAYWGQGTTVTVSSASTKGPSVFPLAPSSKSTSGGTAALGCLVKDYFPEPVTVSWNSGALTSGVHTFPAVLQSSGLYSLSSVVTVPSSSLGTQTYICNVNHKPSNTKVDKRVEPKSCGGGGSEVQLVESGGGLAQAGGSLRVSCVASGRPFTKYAWGWFRQAPGKAREFVATITWDGGKTDYADSVKGRFTISKDSAENSIYLQMNSLKPEDTAVYYCAADRNYCVGHRCYVRPDDYDYWGQGTQVTVSS light: EVQLVESGGGLAQAGGSLRVSCVASGRPFTKYAWGWFRQAPGKAREFVATITWDGGKTDYADSVKGRFTISKDSAENSIYLQMNSLKPEDTAVYYCAADRNYCVGHRCYVRPDDYDYWGQGTQVTVSSGGGGSAVVTQEPSLTVSPGGTVTLTCGSSTGAVTTSNYANWVQQKPGKSPRGLIGGTNKRAPGVPARFSGSLLGGKAALTISGAQPEDEADYYCALWYSNHWVFGGGTKLTVLGTVAAPSVFIFPPSDEQLKSGTASVVCLLNNFYPREAKVQWKVDNALQSGNSQESVTEQDSKDSTYSLSSTLTLSKADYEKHKVYACEVTHQGLSSPVTKSFNRGEC | – | – | 0.01 | –
CDR-2 (bispecific antibody, no Fc; also called Format #2; monovalent Fab-VHH HLA-A2/MAGE-A4 x CD3 bispecific) heavy: EVQLVESGGGSVQPGGSLRLSCAASGFTFSTYAMNWVRQAPGKGLEWVGRIRSKANNYATYYADSVKGRFTISRDDSKNTLYLQMNSLRAEDTATYYCVRHGNFGDSYVSWFAYWGQGTTVTVSSASTKGPSVFPLAPSSKSTSGGTAALGCLVKDYFPEPVTVSWNSGALTSGVHTFPAVLQSSGLYSLSSVVTVPSSSLGTQTYICNVNHKPSNTKVDKRVEPKSC light: AVVTQEPSLTVSPGGTVTLTCGSSTGAVTTSNYANWVQQKPGKSPRGLIGGTNKRAPGVPARFSGSLLGGKAALTISGAQPEDEADYYCALWYSNHWVFGGGTKLTVLGTVAAPSVFIFPPSDEQLKSGTASVVCLLNNFYPREAKVQWKVDNALQSGNSQESVTEQDSKDSTYSLSSTLTLSKADYEKHKVYACEVTHQGLSSPVTKSFNRGECGGGGSEVQLVESGGGLAQAGGSLRVSCVASGRPFTKYAWGWFRQAPGKAREFVATITWDGGKTDYADSVKGRFTISKDSAENSIYLQMNSLKPEDTAVYYCAADRNYCVGHRCYVRPDDYDYWGQGTQVTVSS | 0.18 | 2.6 | – | –
CDR-10 (bispecific antibody, no Fc) heavy: EVQLVESGGGLVQPGGSLRLSCAASGFTFSTYAMNWVRQAPGKGLEWVGRIRSKYNNYATYYADSVKGRFTISRDDSKNTLYLQMNSLRAEDTAVYYCVRHGNFGDSYVSWFAYWGQGTLVTVSSASTKGPSVFPLAPSSKSTSGGTAALGCLVKDYFPEPVTVSWNSGALTSGVHTFPAVLQSSGLYSLSSVVTVPSSSLGTQTYICNVNHKPSNTKVDKRVEPKSCGGGGSEVQLVESGGGLVQPGGSLRLSCVASGRPFTKYAWGWFRQAPGKAREFVATITWDGGKTDYADSVKGRFTISKDSAKNSIYLQMNSLRAEDTAVYYCAADRNYCVGHRCYVRPDDYDYWGQGTLVTVSS light: QAVVTQEPSLTVSPGGTVTLTCGSSTGAVTTSNYANWVQQKPGKSPRGLIGGTNKRAPGVPARFSGSLLGGKAALTISGAQPEDEADYYCALWYSNHWVFGGGTKLTVLGTVAAPSVFIFPPSDEQLKSGTASVVCLLNNFYPREAKVQWKVDNALQSGNSQESVTEQDSKDSTYSLSSTLTLSKADYEKHKVYACEVTHQGLSSPVTKSFNRGECGGGGSEVQLVESGGGLVQPGGSLRLSCVASGRPFTKYAWGWFRQAPGKAREFVATITWDGGKTDYADSVKGRFTISKDSAKNSIYLQMNSLRAEDTAVYYCAADRNYCVGHRCYVRPDDYDYWGQGTLVTVSS | – | – | – | 11
CDR-11 (bispecific antibody, no Fc) heavy: EVQLVESGGGLVQPGGSLRLSCAASGFTFSTYAMNWVRQAPGKGLEWVGRIRSKYNNYATYYADSVKGRFTISRDDSKNTLYLQMNSLRAEDTAVYYCVRHGNFGNSYVSWFAYWGQGTLVTVSSASTKGPSVFPLAPSSKSTSGGTAALGCLVKDYFPEPVTVSWNSGALTSGVHTFPAVLQSSGLYSLSSVVTVPSSSLGTQTYICNVNHKPSNTKVDKRVEPKSCGGGGSEVQLVESGGGLVQPGGSLRLSCVASGRPFTKYAWGWFRQAPGKAREFVATITWDGGKTDYADSVKGRFTISKDSAKNSIYLQMNSLRAEDTAVYYCAADRNYCVGHRCYVRPDDYDYWGQGTLVTVSS light: QAVVTQEPSLTVSPGGTVTLTCRSSTGAVTTSNYANWVQQKPGQAPRGLIGGTNKRAPGVPARFSGSLLGGKAALTISGAQPEDEADYYCALWYSNHWVFGGGTKLTVLGTVAAPSVFIFPPSDEQLKSGTASVVCLLNNFYPREAKVQWKVDNALQSGNSQESVTEQDSKDSTYSLSSTLTLSKADYEKHKVYACEVTHQGLSSPVTKSFNRGECGGGGSEVQLVESGGGLVQPGGSLRLSCVASGRPFTKYAWGWFRQAPGKAREFVATITWDGGKTDYADSVKGRFTISKDSAKNSIYLQMNSLRAEDTAVYYCAADRNYCVGHRCYVRPDDYDYWGQGTLVTVSS | – | – | – | 1.2
CDR-3 (bispecific antibody, no Fc; also called Format #3; monovalent Fab-VHH) heavy: EVQLVESGGGSVQPGGSLRLSCAASGFTFSTYAMNWVRQAPGKGLEWVGRIRSKANNYATYYADSVKGRFTISRDDSKNTLYLQMNSLRAEDTATYYCVRHGNFGDSYVSWFAYWGQGTTVTVSSASTKGPSVFPLAPSSKSTSGGTAALGCLVKDYFPEPVTVSWNSGALTSGVHTFPAVLQSSGLYSLSSVVTVPSSSLGTQTYICNVNHKPSNTKVDKRVEPKSCGGGGSEVQLVESGGGLAQAGGSLRVSCVASGRPFTKYAWGWFRQAPGKAREFVATITWDGGKTDYADSVKGRFTISKDSAENSIYLQMNSLKPEDTAVYYCAADRNYCVGHRCYVRPDDYDYWGQGTQVTVSS light: AVVTQEPSLTVSPGGTVTLTCGSSTGAVTTSNYANWVQQKPGKSPRGLIGGTNKRAPGVPARFSGSLLGGKAALTISGAQPEDEADYYCALWYSNHWVFGGGTKLTVLGTVAAPSVFIFPPSDEQLKSGTASVVCLLNNFYPREAKVQWKVDNALQSGNSQESVTEQDSKDSTYSLSSTLTLSKADYEKHKVYACEVTHQGLSSPVTKSFNRGEC | 0.24 | 1.9 | – | –
CDR-9 (bispecific antibody, no Fc) heavy: EVQLVESGGGLVQPGGSLRLSCAASGFTFSTYAMNWVRQAPGKGLEWVGRIRSKANNYATYYADSVKGRFTISRDDSKNTLYLQMNSLRAEDTAVYYCVRHGNFGDSYVSWFAYWGQGTLVTVSSASTKGPSVFPLAPSSKSTSGGTAALGCLVKDYFPEPVTVSWNSGALTSGVHTFPAVLQSSGLYSLSSVVTVPSSSLGTQTYICNVNHKPSNTKVDKRVEPKSCGGGGSEVQLVESGGGLVQPGGSLRLSCVASGRPFTKYAWGWFRQAPGKAREFVATITWDGGKTDYADSVKGRFTISKDSAKNSIYLQMNSLRAEDTAVYYCAADRNYCVGHRCYVRPDDYDYWGQGTLVTVSS light: QAVVTQEPSLTVSPGGTVTLTCGSSTGAVTTSNYANWVQQKPGKSPRGLIGGTNKRAPGVPARFSGSLLGGKAALTISGAQPEDEADYYCALWYSNHWVFGGGTKLTVLGTVAAPSVFIFPPSDEQLKSGTASVVCLLNNFYPREAKVQWKVDNALQSGNSQESVTEQDSKDSTYSLSSTLTLSKADYEKHKVYACEVTHQGLSSPVTKSFNRGECGGGGSEVQLVESGGGLVQPGGSLRLSCVASGRPFTKYAWGWFRQAPGKAREFVATITWDGGKTDYADSVKGRFTISKDSAKNSIYLQMNSLRAEDTAVYYCAADRNYCVGHRCYVRPDDYDYWGQGTLVTVS | – | – | – | 54
CDR-4 (bispecific antibody, no Fc; also called Format #4; monovalent Fab-VHH HLA-A2/MAGE-A4 x CD3 bispecific) heavy: EVQLVESGGGLAQAGGSLRVSCVASGRPFTKYAWGWFRQAPGKAREFVATITWDGGKTDYADSVKGRFTISKDSAENSIYLQMNSLKPEDTAVYYCAADRNYCVGHRCYVRPDDYDYWGQGTQVTVSSGGGGSEVQLVESGGGSVQPGGSLRLSCAASGFTFSTYAMNWVRQAPGKGLEWVGRIRSKANNYATYYADSVKGRFTISRDDSKNTLYLQMNSLRAEDTATYYCVRHGNFGDSYVSWFAYWGQGTTVTVSSASTKGPSVFPLAPSSKSTSGGTAALGCLVKDYFPEPVTVSWNSGALTSGVHTFPAVLQSSGLYSLSSVVTVPSSSLGTQTYICNVNHKPSNTKVDKRVEPKSC light: AVVTQEPSLTVSPGGTVTLTCGSSTGAVTTSNYANWVQQKPGKSPRGLIGGTNKRAPGVPARFSGSLLGGKAALTISGAQPEDEADYYCALWYSNHWVFGGGTKLTVLGTVAAPSVFIFPPSDEQLKSGTASVVCLLNNFYPREAKVQWKVDNALQSGNSQESVTEQDSKDSTYSLSSTLTLSKADYEKHKVYACEVTHQGLSSPVTKSFNRGEC | 0.5 | 1.3 | – | –
